Assay results: paper PMC6160459, “Identification of Peptide Mimotope Ligands for Natalizumab” (Scientific Reports, 2018)
Values belong to the binder of their own block, whether it stands above or below them.

Columns and labels:
Natalizumab = assay: peptide array variant scan, natalizumab binding in arbitrary ELISA units; conditions: chain shown with the change;, read off a plot
Ntz-07 synthetic peptide [1] = assay: ELISA; Protocol-2: biotinylated peptide at 1 µg/ml in TBS on streptavidin-coated wells; natalizumab in 2.5% BSA/1X casein/TBST (or diluted human serum) 1 h at RT; detected with anti-IgG4-HRP; apparent affinity
Ntz-06 synthetic peptide [2] = assay: as above
Ntz-07 synthetic peptide [3] = assay: BLI; Octet Red96; 10 µg/ml peptide immobilised on a streptavidin sensor; natalizumab in solution 1-600 nM, three-fold dilutions; TBS; apparent affinity
Ntz-06 synthetic peptide [4] = assay: as above
Ntz-01 synthetic peptide = assay: as above
Ntz-04 synthetic peptide = assay: as above
Ntz-02 synthetic peptide = assay: as above
Ntz-03 synthetic peptide = assay: as above
Ntz-05 synthetic peptide = assay: as above

Binder: ACPQNPSKFC [Ntz-02 parent peptide on the Pepscan array S4Q]
- response (Natalizumab; parent: est. 80): 1000 mAU

B1: Natalizumab (antibody, V domains shown)
VH: QVQLVQSGAEVKKPGASVKVSCKASGFNIKDTYIHWVRQAPGQRLEWMGRIDPANGYTKYDPKFQGRVTITADTSASTAYMELSSLRSEDTAVYYCAREGYYGNYGVYAMDYWGQGTLVTVSS
VL: DIQMTQSPSSLSASVGDRVTITCKTSQDINKYMAWYQQTPGKAPRLLIHYTSALQPGIPSRFSGSGSGRDYTFTISSLQPEDIATYYCLQYDNLWTFGQGTKVEIK
- fold improvement of apparent affinity over Ntz-02 (Ntz-07 synthetic peptide [1]): 6.2 fold
- fold improvement of apparent affinity over Ntz-03 (Ntz-07 synthetic peptide [1]): 14 fold
- fold improvement of apparent affinity over Ntz-01 (Ntz-06 synthetic peptide [2]): 1.7 fold
- Kd (Ntz-07 synthetic peptide [3]): 3.24 nM
- Kd (Ntz-06 synthetic peptide [4]): 6.87 nM
- Kd (Ntz-01 synthetic peptide): 29.1 nM
- Kd (Ntz-04 synthetic peptide): 6.03 nM
- Kd (Ntz-02 synthetic peptide): 32.1 nM
- Kd (Ntz-03 synthetic peptide): 31.4 nM
- Kd (Ntz-05 synthetic peptide): 10.5 nM

Binder: ACPMNPSKFC [Ntz-01 parent peptide on the Pepscan array E6P]
- response (Natalizumab; parent: est. 1100): 1500 mAU

Next, values leading:

- response (Natalizumab; parent: est. 80): 1900 mAU
Binder: ACPKNPSKFC [Ntz-02 parent peptide on the Pepscan array S4K]

- response (Natalizumab; parent: est. 1100): 2400 mAU
Binder: ACPRNESKFC [Ntz-01 parent peptide on the Pepscan array H4R]

- response (Natalizumab; parent: est. 60): 2300 mAU
Binder: ACPKNPSKFC [Ntz-03 parent peptide on the Pepscan array N7S]
